Tests used:
Format in all cases: cell-based, human
PKC = test: MARCKS phosphorylation (PKC activity) in A2058 cells, Western blot; details: rWnt-5a 0.2 μg/ml
Experimental: The cells were either directly lysed in 1× Laemmli buffer containing DTT and boiled for 10 min, or lysed in buffer containing 50 mM Tris-HCl (pH 7.5), 1% Triton X-100, 100 mM NaCl, 10 mM MgCl2, 20% glycerol, 1 mM Na3VO4, and protease inhibitors (20 μg/ml aprotinin, 1 μg/ml leupeptin, 2.5 mM benzamidine, and 2 mM pefabloc). Cell treated with lysis buffer were centrifuged at 15,000 rpm for 5 min at 4° C. The protein content in each sample was determined and adjusted to ensure equal loading of protein in each lane. Thereafter, 50 mM DTT and 5× concentrated Laemmli buffer was added and the samples boiled for 5 min. The samples were separated by SDS polyacrylamide gel electrophoresis and subsequently transferred to PVDF membranes. For immunoblotting the membranes were blocked in PBS supplemented with 0.2% Tween 20 and 1% non-fat milk for Wnt-5a or 3% non-fat milk as for all other antibodies for 1 h. […] Finally, the Ab-antigen complexes were detected using enhanced chemiluminescence. […]
In the present study the level of PKC auto-phosphorylation (Weeraratna et al., 2002, Dissanayake et al., 2007) was not estimated since its relation to PKC kinase activity is unclear. Instead the effects of Wnt-5a and Box5 on the phosphorylation of the endogenous PKC substrate MARCKS were analyzed as a direct means of estimating the activity level of PKC in the melanoma cells. […]

A2058 melanoma cells [1] = test: Wound-healing assay (migration), A2058 cells; details: 0.2 μg/ml Wnt-5a, serum-free medium
Experimental: Cells were plated in 12 well plates and allowed to grow into a confluent layer in complete RPMI (for A2058 cells) or complete McCoy's 5A medium (for HTB63 cells). As indicated, cells were pre-incubated with the Box5 peptide (100 μM) or control solvent for 40 min with continuous agitation. A wound was then inflicted by making a scratch through the confluent layer of cells with a pipette tip. During the migration period of the assay, cells were incubated either in serum-free medium or in the case of HTB63 cells in their own serum-free-conditioned medium collected from cells cultured for 48 h and used within 2 days after collection. The exact conditions of each experiment are described above. To avoid loss of activity, cell medium was changed after 24 hours. A picture for each scratch was taken in the same area of cells at 0, 16, 24, 40 and 48 hours, and wound healing was measured as percentage of wound area closed. For each experimental condition wound healing was analysed in triplicate. All data were based on 3 to 8 separate experiments as indicated.

A2058 melanoma cells [2] = test: BD Matrigel invasion chamber assay, A2058 cells; details: 0.2 μg/ml Wnt-5a, 24 hours
Experimental: Cell invasion was analyzed using the BD Matrigel™ invasion chamber assay (BD Biosciences, Bedford, Mass.). Prior to the initiation of each experiment, the cells were detached with Versene and re-suspended as single cells in serum-free RPMI medium. As indicated, cells were pre-incubated with the Box5 peptide (100 μM) or control solvent for 40 min with continuous agitation. An aliquot of the cell suspension containing 25,000 cells and 100 μM Box5 or control solvent was then added to the upper transwell chamber, and the lower chamber was filled with serum-containing (10%) medium. The invasion chambers were shaken horizontally for 5 min to ensure even distribution of the cells in suspension and subsequently across the membrane surface. The cells were allowed to invade for the periods of time indicated at 37° C. in a humidified atmosphere of 5% CO2. The medium was discarded and cells were fixed in 4% paraformaldehyde for 10 min. The cells were stained with 0.5% crystal violet in 20% methanol for 10 min and the non-invading cells on the inner side of the membrane were removed with a cotton-tipped applicator. The membrane was cut out of the chamber using a scalpel blade and the stained cells on the lower chamber side of the membrane were counted.

B1: Wnt-5a: human recombinant Wnt-5a protein from R&D Systems (protein, UniProt P41221 62-380, looked up)
Protein Wnt-5a: IIGAQPLCSQLAGLSQGQKKLCHLYQDHMQYIGEGAKTGIKECQYQFRHRRWNCSTVDNTSVFGRVMQIGSRETAFTYAVSAAGVVNAMSRACREGELSTCGCSRAARPKDLPRDWLWGGCGDNIDYGYRFAKEFVDARERERIHAKGSYESARILMNLHNNEAGRRTVYNLADVACKCHGVSGSCSLKTCWLQLADFRKVGDALKEKYDSAAAMRLNSRGKLVQVNSRFNSPTTQDLVYIDPSPDYCVRNESTGSLGTQGRLCNKTSEGMDGCELMCCGRGYDQFKTVQTERCHCKFHWCCYVKCKKCTEIVDQFVCK
PKC
  Effect on phosphorylation of MARCKS: increased phosphorylation
A2058 melanoma cells [1]
  Effect on migration of A2058 cells: increased
A2058 melanoma cells [2]
  Effect on invasion of A2058 cells: stimulate

From US8497352B2, “Use of Wnt5-α peptide derivates for the treatment of melanoma and gastric cancer” (Wntresearch AB, priority 2008, dated 2013)
